Data reported in US20070224188A1.

Molecular target: biotin-labeled soluble FcRn
Assay: FcRn ELISA pH 6.0

Chain of anti-CD20 antibody, IgG1 Fc region, wild type (a, z) (heavy, part): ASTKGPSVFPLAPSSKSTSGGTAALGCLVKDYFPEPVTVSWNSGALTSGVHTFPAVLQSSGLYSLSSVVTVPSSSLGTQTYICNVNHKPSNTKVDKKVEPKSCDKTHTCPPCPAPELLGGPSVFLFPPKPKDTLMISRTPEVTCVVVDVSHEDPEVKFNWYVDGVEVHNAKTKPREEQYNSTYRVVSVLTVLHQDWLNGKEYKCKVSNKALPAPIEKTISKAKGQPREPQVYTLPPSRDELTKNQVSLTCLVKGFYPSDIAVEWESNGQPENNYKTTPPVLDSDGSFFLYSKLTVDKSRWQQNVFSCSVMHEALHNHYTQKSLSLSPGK

FcRn pH6.0 (% of wild type)	FcRn6.0 (% of wild type)	Substance
73	–	anti-CD20 IgG1 Y373I (antibody)
70	–	anti-CD20 IgG1 Y373K (antibody)
66	–	anti-CD20 IgG1 Y373L (antibody)
53	–	anti-CD20 IgG1 Y373M (antibody)
61	–	anti-CD20 IgG1 Y373N (antibody)
55	–	anti-CD20 IgG1 Y373Q (antibody)
107	–	anti-CD20 IgG1 Y373R (antibody)
74	–	anti-CD20 IgG1 Y373S (antibody)
82	–	anti-CD20 IgG1 Y373T (antibody)
69	–	anti-CD20 IgG1 Y373V (antibody)
75	–	anti-CD20 IgG1 Y373W (antibody)
194	–	anti-CD20 IgG1 Y436I (antibody)
172	–	anti-CD20 IgG1 Y436L (antibody)
115	–	anti-CD20 IgG1 Y436T (antibody)
100	100	anti-CD20 antibody, IgG1 Fc region, wild type (a, z)
